Reference: US20230105029A1 (CHIA TAI TIANQING PHARMACEUTICAL GROUP, published 2023)
Residue numbers refer to the chain shown, from its start. Values joined by “and” are separate entries in the source; they are usually repeats but may differ in a detail not shown here. Identical values can stand only once. Like-named read-outs stand apart in the source and are kept apart here.

Key:
[1] = biological target: T1, human IL4Rα expressed on 293F-IL4Rα cells (human, UniProt P24394 26-825); test: flow cytometry on 293F-IL4Rα cells, blocked ligand biotin human IL4
T1 construct: whole, on cells; also called cell surface human IL4Rα
Experimental: Then, 1×10⁵ cells per well in 96 well-plates were incubated in 100 μL of the anti-IL4Rα antibodies or controls of various concentrations (starting at 80 nM with a 4-fold serial dilution) in FACS buffer for 40 minutes on ice. The plates were washed twice with FACS buffer, and added and incubated for 40 minutes at 4° C. in dark with 100 μl/well 1.67 nM biotin-labeled human IL4 protein (Sino biological inc., Cat #11846-HNAE). The plates were washed twice with FACS buffer, and then added and incubated for 40 minutes at 4° C. in dark with 100 μl/well R-Phycoerythrin Streptavidin (1:500 dilution in FACS buffer, Jackson Immunoresearch, Cat #016-110-084). Cells were washed twice and resuspended in FACS buffer. Fluorescence was measured using a Becton Dickinson FACS Canto II-HTS equipment. Data was analyzed using Graphpad Prism software and IC₅₀ values were reported.

[2] = biological target: T1, human IL4Rα expressed on 293F-IL4Rα …; test: flow cytometry on 293F-IL4Rα cells
[3] = biological target: T2, cynomolgus monkey IL4Rα-his protein (cynomolgus monkey, UniProt A0A2K5V580 33-239); test: indirect ELISA on coated cynomolgus IL4Rα-his
T2 construct: Bought protein; also called Cynomolgus IL4Rα; Cyno-IL4Rα-his; not shown: his tag

[4] = biological target: T1, human IL4Rα expressed on 293F-IL4Rα …; test: flow cytometry on 293F-IL4Rα cells, blocked ligand biotin human IL4; remark: listed apart in the source
[5] = biological target: T3, recombinant human IL4Rα-his protein (in house made) (human, UniProt P24394 26-232, limits assumed); test: capture ELISA, biotin-IL4Rα-his
T3 construct: also called Human IL4Ra-his
Experimental: Plates were washed once with wash buffer (PBS+0.05% w/v Tween-20, PBST) and then blocked with 200 μl/well blocking buffer (5% w/v non-fatty milk in PBST) for 2 hours at 37° C. Plates were washed again and incubated with 100 μl/well serially diluted anti-IL4Rα antibodies of the disclosure, the benchmark or negative control hIgG (human immunoglobulin (pH4) for intravenous injection, Hualan Biological Engineering Inc.) (5-fold dilution in 2.5% w/v non-fatty milk in PBST, starting at 66.7 nM) for 40 minutes at 37° C., and then washed 4 times again. Plates containing captured anti-IL4Rα antibodies were incubated with biotin-labeled human IL4Rα-his protein (in house made with SEQ ID NO: 57, 0.14 nM in 2.5% w/v non-fatty milk in PBST, 100 μl/well) for 40 minutes at 37° C., washed 4 times, and incubated with streptavidin conjugated HRP (1:10000 dilution in PBST, Jackson Immuno Research, Cat #016-030-084, 100 μl/well) for 40 minutes at 37° C. After a final wash, plates were incubated with 100 μl/well ELISA substrate TMB (Innoreagents, Cat #TMB-S-002). The reaction was stopped in 10 minutes at 25° C. with 50 μl/well 1M H₂SO₄, and the absorbance was read at 450 nm. Data was analyzed using Graphpad Prism software and EC₅₀ values were reported.
For the capture ELISA, 96-well micro plates were coated with 2 μg/ml goat anti-human IgG (AffiniPure Goat Anti-Human IgG, Fcγ fragment specific, Jackson Immunoresearch, Cat #109-005-098) instead of goat anti-mouse IgG Fey fragment, 100 μl/well.

[6] = biological target: T4, marmoset monkey IL4Rα-his protein (marmoset monkey); test: indirect ELISA on coated cal-IL4Rα-his
T4 construct: Custom made by Sino biological; no cleavage site stated; also called cal-IL4Rα-his; Cal-IL4Rα
T4 chain: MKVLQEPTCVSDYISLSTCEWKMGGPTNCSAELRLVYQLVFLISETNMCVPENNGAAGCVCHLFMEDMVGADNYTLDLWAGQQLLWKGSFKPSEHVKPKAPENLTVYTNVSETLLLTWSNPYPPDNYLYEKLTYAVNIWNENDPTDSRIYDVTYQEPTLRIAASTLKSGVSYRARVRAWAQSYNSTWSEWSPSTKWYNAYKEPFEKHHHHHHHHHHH

[7] = biological target: T3, recombinant human IL4Rα-his protein (in …); test: capture ELISA: antibody captured on anti-IgG Fc plate, biotin human IL4Rα-his detected
[8] = biological target: T3, recombinant human IL4Rα-his protein (in …); test: competitive ELISA: coated human IL4Rα-his, blocked ligand biotin human IL4
[9] = biological target: T3, recombinant human IL4Rα-his protein (in …); test: SPR (Biacore), antibody captured, IL4Rα-his flowed
[10] = biological target: human IL4Rα expressed on HEK293T-IL4Rα-STAT6-STAT6LUC-LB2 cells (human, UniProt P24394 26-825); test: cell-based or functional assay
[11] = biological target: T3, recombinant human IL4Rα-his protein (in …); test: SPR (Biacore), antibody captured, IL4Rα-his flowed; remark: listed apart in the source
[12] = biological target: T3, recombinant human IL4Rα-his protein (in …); test: competitive ELISA: antibody mixed with biotin human IL4Rα-his, competitor plate-coated Benchmark
[13] = biological target: T4, marmoset monkey IL4Rα-his protein; test: indirect ELISA on coated cal-IL4Rα-his
[14] = biological target: T1, human IL4Rα expressed on 293F-IL4Rα …; test: flow cytometry on 293F-IL4Rα cells; remark: listed apart in the source
[15] = biological target: T3, recombinant human IL4Rα-his protein (in …); test: SPR (Biacore), antibody captured, IL4Rα-his flowed; remark: listed apart in the source

B1: mouse antibody B8G11F2B7G5E8 (antibody, V domains shown)
VH: EVQLQQSGADLVRPGASVKLSCTASGFNIKDTYMHWVKQRPEQGLEWVGRIDPTNGYTIYASKFQGKATITADTSSNTAYMQLSSLTSGDTAVYHCVSRRPWFAYWGQGTLVTVSA
VL: DILMTQTPLSLPVSLGAQASISCRSSQSIVHSNGNTYLEWYLQKPGQSPKLLIYKVTNRFSGVPDRFSGSGSGTDFTLKISRVEAEDLGIYYCFQGSHVPYTFGGGTKLEIK
notes: Mouse hybridoma mAb; also called Mouse B8G11F2B7G5E8; mAb B8G11F2B7G5E8
Binder B1 has an IC50 [1] of 0.804 nM, an EC50 [2] of 0.325 nM and an EC50 [3] of 0.5 nM. It also gave an IC50 [4] of 0.5 nM, an EC50 [5] of 0.14 nM and an EC50 [6] of 0.873 nM. It also gave an EC50 [7] of 0.213 nM and an IC50 [8] of 1 nM.

B2: chimeric antibody B8G11F2B7G5E8 (antibody, human IgG4 S228P, kappa, V domains shown)
VH: B1 VH
VL: DILMTQTPLSLPVSLGAQASISCRSSQSIVHSNGNTYLEWYLQKPGQSPKLLIYKVTNRFSGVPDRFSGSGSGTDFTLKISRVEAEDLGIYYCFQGSHVPYTFGGGTKLEIKR
notes: Mouse variable domains on human IgG4/kappa; also called Chimeric B8G11F2B7G5E8; chB8G11F2B7G5E8
In the case of B2, the Kd [9] is reported as 3.68 nM and 2.69 nM, the koff [9] is reported as 0.00112 s⁻¹ and 0.00143 s⁻¹ and the kon [9] is reported as 306000 M⁻¹ s⁻¹ and 529000 M⁻¹ s⁻¹. For the same binder, the EC50 [2] was 0.442 nM, the “Inhibition on IL4 induced STAT6 phosphorylation (IC50, nM)” value [10] was 0.45 nM and the “Inhibition on IL13 induced STAT6 phosphorylation (IC50, nM)” value [10] was 0.5 nM. The EC50 [3] was 1.06 nM, the IC50 [4] was 0.364 nM and the EC50 [5] was 0.27 nM. It also gave a Kd [11] of 3.23 nM, an EC50 [6] of 1.01 nM and an EC50 [7] of 0.319 nM. It also gave an IC50 [8] of 1.42 nM and an IC50 [12] of 1.52 nM.

B3: mouse antibody C2C1A1A1 (antibody, V domains shown)
VH: EVQLVESGGGLVQPGGSLKLSCAASGFTFSTYGMSWVRQTPDKRLELVATINSNGGSTSYPDSVKGRFTISRDNAKNTLYLQMSSLKSEDTAMFYCARFFRFRNAMDYWGQGTSVTVSS
VL: DIQMTQSPASLSASVGETVTITCRTSENIYSYLAWYQQKQGKSPQFLVYNAKTLAEGVPSRFSGSGSGTQFSLNINSLQSEDFGSYYCQHYYGPPTWTFGGGTKLEIK
notes: Mouse hybridoma mAb; also called Mouse C2C1A1A1
Binder B3 has an IC50 [1] of 0.44 nM, an EC50 [5] of 0.03 nM and an EC50 [13] of 0.574 nM.

B4: chimeric antibody C2C1A1A1 (antibody, human IgG4 S228P, kappa, V domains shown)
VH: B3 VH
VL: DIQMTQSPASLSASVGETVTITCRTSENIYSYLAWYQQKQGKSPQFLVYNAKTLAEGVPSRFSGSGSGTQFSLNINSLQSEDFGSYYCQHYYGPPTWTFGGGTKLEIKR
notes: Mouse variable domains on human IgG4/kappa; also called Chimeric C2C1A1A1; chC2C1A1A1
In the case of B4, the “Inhibition on IL4 induced STAT6 phosphorylation (IC50, nM)” value [10] is reported as 0.26 nM, the “Inhibition on IL13 induced STAT6 phosphorylation (IC50, nM)” value [10] is reported as 0.39 nM and the EC50 [5] is reported as 0.05 nM. The Kd [11] was 0.388 nM, the EC50 [14] was 0.326 nM and the kon [15] was 329000 M⁻¹ s⁻¹ and 364000 M⁻¹ s⁻¹. It also gave an EC50 [13] of 0.623 nM.

B5: mouse antibody C2B2F7B7 (antibody, V domains shown)
VH: B3 VH with S59N, F94Y, F102I
VL: B3 VL with T25A, N74K, S80P, P94T
notes: Mouse hybridoma mAb
Work on B5 yielded an IC50 [1] of 0.397 nM.

B6: mouse antibody B1D2F7D3B5 (antibody, V domains shown)
VH: EVKLVESGGGLVKPGGSLKLSCAASGFTFSSYAMSWVRQTPEKRLEWVASISSGDSTYYLDSVKGRFTISRDNAMNILYLQMSSLRSEDTAVYYCERSGGSAPYWGQGTLVSVSA
VL: QIVLTQSPAIMSASPGEMVTISCSASSSVSYMYWYQQKPGSSPKPWIYRTSNLASGVPARFSGSGSGTSYSLTISSMEAEDAATYYCQQYHSFPLTFGAGTKLELK
notes: Mouse hybridoma mAb
For B6, the IC50 [1] was 0.787 nM.

B7: mouse antibody B9D1D11F8D8 (antibody, V domains shown)
VH: B6 VH with M75R, M82V, V92M, S112T
VL: B6 VL with E17D, S30N
notes: Mouse hybridoma mAb
With B7 the IC50 [1] was 0.748 nM.
